# Test results as given in FireProtDB (doi:10.1073/pnas.88.5.1706).
# B1: DNA-Binding protein G5P wild type, P69542 (protein)
# chain: MIKVEIKPSQAQFTTRSGVSRQGKPYSLNEQLCYVDLGNEYPVLVKITLDEGQPAYAPGLYTVHLSSFKVGQFGSLMIDRLRLVPAK
# Settings: Enterobacteria phage fd; pH 7; 25 °C; GdnHCl; CD; MOPS 50 mM; NaCl 100 mM; reversible: yes; whole UniProt chain shown
protein,measurement,value
B1,denaturant m value,3.6 kcal/mol/M
same,denaturant midpoint (higher = more stable),2.61 M
same,unfolding free energy,9 kcal/mol
